This series is described as follows: yeast display, Sf9 membrane polyspecificity reagent, FACS + sequencing; frameworks hold sequencing errors. The procedure, abridged:
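After 36–48 hours of galactose induction, yeast (Saccharomyces cerevisiae BJ5465) displaying a synthetic nanobody library were stained at 4 °C for 1 hour with 10% biotinylated, detergent-solubilized Sf9 membrane reagent. Streptavidin microbeads enriched the stained cells before FACS sorting into low and high (top ~1%) gates on anti-HA and streptavidin fluorescence. Each clone's polyreactivity label reflects its gate of origin.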
Take “QVQHVESGRGLVQAGGSLRLSCAASGGTFNRYAMGWYRQAPGKERELVAAITSSGGSTYYADSVKGRFTISRDNAMNTVYLHMNSLNPEDTAVYYCNAPGFRRLWGLGYDYWGQGTQVTVSS”: the “polyreactivity (PSR sort gate)” value is given as “high polyreactivity”. The entry for “QVQHVESGRGLVQAGGSLRLSCAASGRISYYYAMGWSRQAPGKEMELVAAITNVGGTYYADSVKGRFTISRDNAKNTVYLQMNSLKQEDTAVFYCAKDFPARHNYWYSSRFFDYWGQGTQGTVSS” is “low polyreactivity”; for “QVQHVESGRGLVQAGGSLRLSCAAYGRIPYKAMGWYKQAPGKERELVAAISRSGTRTYYADSVKGRYTISRDNAKNTVYLQMISLKPQDTAVYYCAAPVSGYSSDYWGQGTQVTVSS” it is “high polyreactivity”. As to “QVQHVESGVGLVQAGGRLRLSCAASGRTFSSNAMGWYRKAPGKERELVAAISSSGGRTYYADSVKGRFTISRDNAKNTVYLDMNSLKQEDTAVYYCAVVYFPIWASYPYWWEYDYWGHGTQVTVSS”, the “polyreactivity (PSR sort gate)” value is “high polyreactivity”. The entry for “QVQHVESGVGLVQAGGSLRLSCAASGFTFGWYAMGWYRQAPGKERELVASISWSGSTTYYADSVKGRFTISRDIAKNTVYLQMNSLKPEDTAVYYCNARRSYVRNDFDYWGQGTQVTVSS” is “high polyreactivity”. As to “QVQHVESGVGLVQAGGSLRLSCAASGITFLDTVLGWYRHAPAKEWELVADINSIGTSTSYADSVKGRFTISRDNAKNTVYLQMISLKPEDTADYYCAATSYARLAYYYGGQGTQVTVSS”, the “polyreactivity (PSR sort gate)” value is given as “low polyreactivity”. In the case of “QVQHVESGVGLVQAGGSLRLSCASSGLTFQYYSMGWYRQAPGKERELVAAISRRGGSTYYADSVKGRFTISRDNAKNTVYLQMNSLKPEDTAVYYCARYSYRGTNVRYDYWGQGTQVTVSS” it was “high polyreactivity”.

On to “QVQHVESRGGLDPAGGSLRLSCAASGRIFRGNAMGWSSQATGKERELVASITWRGTSTYYADSVKGRFTISRDIAMNTVYLQMNSLKPEDTAVYYCNAVTQTRGYYWGQGTQVTVSS”, for which the “polyreactivity (PSR sort gate)” value is “high polyreactivity”. As to “QVQHVESRGGLVQAGGSLRLSCAASGNTFWYNAMGWYRQAPGKERELVAAITTSDFGTYYADSVKGRFTISRDNAKNTVYLQMNSLKPEDTAVYYCAAEVYTQRPYYYPAYDYWGQGTQVTVSS”, the “polyreactivity (PSR sort gate)” value is listed as “high polyreactivity”. The entry for “QVQHVESVGGLDQAGGSLRLSSAASGRTFYLYAMGWYRQATGKEREFVADINSSGGSTYYADSVKGRFTISRDNAKNTVYLQMNSLKPEDTAVYYCAAYPIPRGRDYWGQGTQVTVSS” is “low polyreactivity”; for “QVQHVESVGGLDQAGRSLRLSCAASGSTFTPYAMGWYRQAPGKESELVAGITGNGGSTRYADSVKGRFTISRDNAKKTVYLQMNSLKPEDTAVYYCAARWTRQRYRTSYYSWGQGTQVTVSS” it is “high polyreactivity”; for “QVQHVESVGGLLQAGCSLRLSCAPSGRIFGENAIGWYRQAPGKEREFLAVISISDASTYYADSVKGRFTISRDNAKNTGYLQMNSLKPDDTAVYYCAADLTDFLYVASDYWGQGTQVTVSS” it is “low polyreactivity”. As for “QVQHVESVGGLVQAGGSLPLSCDASGSIFGPNAMGWYRQAPGKESELVAAISGSGGSTYYADSVKGRFTISRDNAKNTVYLQMNSLKPEATAVYYCAADLDGTLSVYDYHTTGDDYWGQGTQVTVSS”, the “polyreactivity (PSR sort gate)” value is given as “low polyreactivity”. In the case of “QVQHVESVGGLVQAGGSLRLSCAASGFIFRRYVMGWNRQAPGKERELVAAISYGGGSTYYADSVKGRFTISRDNAKNTVYLQMNCLKPEDTAVYYCNAVSYNLAAYEYWGQGTQVTVSS” it was “high polyreactivity”; in that of “QVQHVESVGGLVQAGGSLRLSCAASGFISDWYAMGWYRQAPGKERELVATIDWIGGSTYADSVKGRFTISRDNAKNTVYLQMNSLKPEDTAVYYCAADSYFIAWYGAHYAYDYWGQGTQVTVSS”, “low polyreactivity”. For “QVQHVESVGGLVQAGGSLRLSCAASGSIFDDYAMGWYRPAPGKERELVAAISSSGTSTYYADSVKGRFTISRDNAKNTVYLQMNSLKPEDTAVYYCAARSAILKSGYLMDYWGQGTQVTVSS”, the “polyreactivity (PSR sort gate)” value was “low polyreactivity”. Regarding “QVQHVETGGGLVQAGCSLRLSCAASGRTFLWNAMGWYRQERGNERELGARINLSGGRTYYADSVKGRFTISRDNAKNSVYLQMNSLKPEETAVYYCAAPVVRYRRDSWGQGTQVTVSS”, the “polyreactivity (PSR sort gate)” value was “low polyreactivity”.

Turning to “QVQHVQSGGGLVQAGGSLRLSCAAAGFIYNNAMGWYRQAPGKETELVATISTSGTDTYYADSVKGRFTISRDNAKNTVYLQMNSLKPEDTAVYYCNADTEIYDSYSSYWTRYEYWGQGTQVTVSS”, the “polyreactivity (PSR sort gate)” value is given as “low polyreactivity”.

For “QVQIEESGGGLVQAGGSLPLSCAASGTIFKYYTRGWYRLAPGKERELFAAISGSGGTTYYADSVKGRFTISRDNAKNTVYLQMNSLKPEDTAVYYCATAYYRAFRGDYWGQGTQVTVSS”, the “polyreactivity (PSR sort gate)” value is “high polyreactivity”. In the case of “QVQIEESGGGLVQAGGSLRLSCAASGSTFGYYAMGWYRQAPGKERELVAAISRGGSTYYADSVKGRFTISRDIAKYTVYLQMHSLKPEDTAVYYCNAVRYLEYDWGQGTQVTVSS” it was “high polyreactivity”; in that of “QVQILESGGGLVQAGVSLRLSCAPSGSTFSRNAMAWYRQAPGKERELVAAISSSGGRTYYAESVKVRFTISRDNAKNTVYLQMNSLTPEDTAVYYCAAAFSLGMYWGQGTLVTVSS”, “high polyreactivity”. In the case of “QVQIVDSGGGLVHAGGSLRLSCADSGSIFSGNAKAWYIQATGKERELVAAISRSGGSTYYADSVKGRFTISRDNAKNTVYLQMNSLKPEDTAVYYCNAGRYRAGGWGVGEGYWGQGTQVTVSS” it was “high polyreactivity”; in that of “QVQIVDSGGGLVQAGGSLRLSCDASGRLISRKAMGWYRQAPGKERELVAAITSGGSTYYADSVKGRFTISRDNAKNTVYLQMNSLKPEDTAVYYCAAVYRGVDSRWYCYDYWGQGTQVTVSS”, “low polyreactivity”. Regarding “QVQIVESGAGLVQAGGSLRISCAASGRIFRYYAMGWYRQAPGKERELVAAITVSGGSKYYADSVKGRFTISRDNAKNTVYLQMNSLKPEDTAVYYCAKALRSYLFIHFDYWVQGTQVTVSS”, the “polyreactivity (PSR sort gate)” value is recorded as “low polyreactivity”.

Turning to “QVQIVESGGALYQAGGSLRLICAASGSTFSQYAMGWYRQEPGKERELLPTINSGGSTNYADSVKGRFTISRDNAMNTVYLQMNSLKPEETAVYYCAAREDLYLYYNGQRVQYDYWGQGTQVTVSS”, the “polyreactivity (PSR sort gate)” value is reported as “low polyreactivity”. The entry for “QVQIVESGGCLVQAGGSLRLSCAASGRTFGRNAMGWYRQAPGKERELVAGISIGGGTTYYADSVKGRFTISRDNAKNTVYLQMNSLKPEDTAVYYCAARSWSYLHRYGYWGQGTQVTVSS” is “high polyreactivity”; for “QVQIVESGGGLLQAGGSLPLTCAASGSTFDDNAQGWYRLAPGKERELVAAISYSGGSTYYADSVKGRFTISRDNAKNTVYLQMNSLKPEDPAVYYCAADDLYTDYETWWRRGDYWGQGTQVTVSS” it is “low polyreactivity”; for “QVQIVESGGGLVQAGASLSLSCAASGSIFGTNAMGWYRQAPGKERELVAAISSAGASTYYADSVKGRFTISRDNAKNTVYLQMNSLKPEDTAVYYCARGYTYQSSSFYYWGQGTQVTVSS” it is “low polyreactivity”. The entry for “QVQIVESGGGLVQAGGNLRLSCAASGFIFTRYAMGWYRQAPGKERELVAAISTSVDRTYYADSVKGRFSISRDNAKNTVYLQMNSLKPEDTAVYYCAVVRPRSVGRYDYWGQGTQVTVSS” is “high polyreactivity”; for “QVQIVESGGGLVQAGGSLPLSCDASGITFERYDMGWYRQAPGKERELGAAISTTGGRTYYADSVKGRFTISRDNAKNSVYLQMNSLKPEDTAVYYCAARYTTRRRYDYWGQGTQVTVSS” it is “high polyreactivity”.

(Values after the nanobody polyreactivity screen of Harvey et al. (2022).)
